For assay [1], the target named is T1, KDR-IgG (UniProt P35968 20-764).
T1 construct: Immobilised on CM5 chip by amine coupling; also called KDR-lgG; VEGF receptor 2; not shown: IgG part of the fusion
Put plainly: SPR (BIAcore 3000), KDR-IgG immobilised on CM5 chip. A general note: Surface plasmon resonance follows binding to a sensor surface in real time, without labels.

Another assay deals with T2, Flt-1-IgG (UniProt P17948 27-687).
T2 construct: Immobilised on CM5 chip by amine coupling; also called Flt-1-lgG; Flt-1-lg; not shown: IgG part of the fusion
T2 sequence (P17948 other isoform, or with tags, fused parts or gaps limits assumed): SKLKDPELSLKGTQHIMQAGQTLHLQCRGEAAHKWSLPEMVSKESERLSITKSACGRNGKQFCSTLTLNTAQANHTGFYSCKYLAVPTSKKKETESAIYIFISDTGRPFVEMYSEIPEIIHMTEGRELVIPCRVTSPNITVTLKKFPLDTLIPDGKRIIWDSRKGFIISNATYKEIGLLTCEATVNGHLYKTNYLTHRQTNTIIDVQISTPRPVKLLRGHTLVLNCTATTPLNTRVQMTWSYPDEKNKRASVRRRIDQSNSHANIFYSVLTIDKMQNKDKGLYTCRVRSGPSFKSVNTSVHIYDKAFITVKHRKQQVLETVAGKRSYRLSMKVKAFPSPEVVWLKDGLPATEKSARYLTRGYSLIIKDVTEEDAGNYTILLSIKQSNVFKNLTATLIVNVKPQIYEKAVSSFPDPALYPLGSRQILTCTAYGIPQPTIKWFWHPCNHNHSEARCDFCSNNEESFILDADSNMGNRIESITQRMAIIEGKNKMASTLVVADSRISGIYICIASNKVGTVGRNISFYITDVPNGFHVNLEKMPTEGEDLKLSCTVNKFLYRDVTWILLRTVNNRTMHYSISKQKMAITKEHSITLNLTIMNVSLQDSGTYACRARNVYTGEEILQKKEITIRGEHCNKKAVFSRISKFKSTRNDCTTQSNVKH
The experiment in a line: SPR (BIAcore 3000), receptor-IgG immobilised on CM5 chip.

The target in assay [2] is T1, KDR-IgG. Put plainly: SPR (BIAcore 3000), KDR-IgG immobilised on CM5 chip; kdiss/kass.
Protocol: (§1) An apparatus for measurement based on surface plasmon resonance technique: BlAcore 3000 (Biosensor) was used to evaluate the properties of binding to and dissociation from a VEGF receptor as for a VEGF-like protein. Experiment for analysis of the receptor binding was conducted at 25° C. using an HBS buffer (10 mM HEPES, pH 7.4, 150 mM NaCl, 3 mM EDTA, 0.005% polysorbate 20). Flt-1-lgG and KDR-lgG were immobilized on a CM5 sensor chip using an amine coupling kit (Biosensor), respectively.
(§2) They were injected into a flow cell at a flow rate of 20 μL/min. A signal from a blank flow channel as a negative control was subtracted as a background signal from the signal from the sample flow channel, for background correction. In the association process, while injecting a solution with the above protein concentration on the sensor chip at the above flow rate, increase in the resonance signal was detected. In the dissociation process, while injecting the above buffer on the sensor chip at the above flow rate, decrease in the resonance signal was measured.
A rate constant for association (kₐₛₛ), a rate constant for dissociation (kdiss) and the maximum binding amount (Rₘₐₓ) for binding to a VEGF receptor in each VEGF-like protein were calculated using a BIA evaluation 3.1 curve fitting software (Biosensor). An apparent dissociation constant (Kd) was calculated as a ratio of the rate constants (kdiss/kₐₛₛ) from the calculated values.
For assay [3], the target named is T3, Flt-4 (VEGF receptor type 3) (UniProt P35916 25-776).
T3 construct: Immobilised on CM5 chip; printed without an IgG suffix; also called VEGF receptor 3
T3 sequence: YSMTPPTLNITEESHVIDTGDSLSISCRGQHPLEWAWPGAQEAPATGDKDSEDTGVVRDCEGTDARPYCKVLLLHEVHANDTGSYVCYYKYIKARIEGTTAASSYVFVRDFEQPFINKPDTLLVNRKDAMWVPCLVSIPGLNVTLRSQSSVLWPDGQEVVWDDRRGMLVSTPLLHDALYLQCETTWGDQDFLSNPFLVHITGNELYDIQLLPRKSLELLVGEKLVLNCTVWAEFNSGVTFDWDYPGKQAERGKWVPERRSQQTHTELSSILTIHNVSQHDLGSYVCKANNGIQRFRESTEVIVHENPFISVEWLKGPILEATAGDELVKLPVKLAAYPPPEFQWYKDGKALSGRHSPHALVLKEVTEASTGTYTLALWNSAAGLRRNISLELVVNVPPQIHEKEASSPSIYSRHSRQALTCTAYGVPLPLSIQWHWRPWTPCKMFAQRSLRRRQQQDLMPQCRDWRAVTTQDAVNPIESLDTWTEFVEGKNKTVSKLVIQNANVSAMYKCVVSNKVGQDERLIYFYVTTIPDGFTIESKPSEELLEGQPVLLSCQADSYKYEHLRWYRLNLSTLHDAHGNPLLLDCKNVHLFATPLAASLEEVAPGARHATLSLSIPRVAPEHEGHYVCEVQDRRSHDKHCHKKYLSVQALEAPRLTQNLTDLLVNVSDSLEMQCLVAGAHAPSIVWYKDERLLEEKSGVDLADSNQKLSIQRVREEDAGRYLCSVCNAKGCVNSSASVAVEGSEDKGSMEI
The experiment in a line: SPR (BIAcore 3000), receptor immobilised on CM5 chip.

Residue numbers refer to the chain shown, from its start.

T1 sequence (P35968 20-764 limits assumed): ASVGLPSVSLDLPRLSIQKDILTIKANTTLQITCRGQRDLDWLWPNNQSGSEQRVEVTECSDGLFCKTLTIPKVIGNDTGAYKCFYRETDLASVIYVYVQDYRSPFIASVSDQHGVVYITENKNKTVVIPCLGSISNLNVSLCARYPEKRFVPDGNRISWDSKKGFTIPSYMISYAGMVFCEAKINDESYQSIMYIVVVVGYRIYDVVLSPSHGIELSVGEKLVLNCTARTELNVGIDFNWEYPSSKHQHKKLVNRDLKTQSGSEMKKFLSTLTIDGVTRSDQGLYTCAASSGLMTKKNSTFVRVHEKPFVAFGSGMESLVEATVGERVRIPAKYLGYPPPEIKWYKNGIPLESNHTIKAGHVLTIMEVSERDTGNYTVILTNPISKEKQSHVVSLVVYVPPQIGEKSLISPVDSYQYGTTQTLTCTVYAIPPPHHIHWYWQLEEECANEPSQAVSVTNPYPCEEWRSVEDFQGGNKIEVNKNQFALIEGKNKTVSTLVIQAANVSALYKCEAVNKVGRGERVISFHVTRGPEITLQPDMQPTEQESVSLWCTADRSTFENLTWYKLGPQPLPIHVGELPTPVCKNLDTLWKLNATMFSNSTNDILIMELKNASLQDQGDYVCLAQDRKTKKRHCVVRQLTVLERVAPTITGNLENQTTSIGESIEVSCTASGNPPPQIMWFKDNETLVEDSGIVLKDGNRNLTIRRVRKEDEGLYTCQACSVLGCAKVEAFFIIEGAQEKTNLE
Protocol for Flt-1-IgG: as §1, §2

B1: VR-1 (VEGF-like protein purified from the venom of Daboia russelli russelli) (ligand)
chain: EVRPFLDVYQRSACQTRETLVSILQEHPDEISDIFRPSCVAVLRCSGCCTDESMKCTPVGKHTADIQIMRMNPRTHSSKMEVMKFMEHTACECRPRWKQGEPEGPKEPR
modifications: pyrrolidone ring at N-terminus (opened with methanol-hydrochloric acid for sequencing)
notes: also called VR-1 protein
For orientation: koff means the first-order rate constant of dissociation. High values mean a short-lived complex, low ones a long-lived complex. Usually kon stands for the rate constant with which the complex forms. A higher kon goes with faster complex formation. The Kd is the free concentration of one partner at which half of the binding sites on the other are occupied at equilibrium, for simple one-to-one binding. Higher therefore signals lower affinity. Consider B1, for which, in the assay with KDR-IgG [1], the koff came out at 1.29e-05 s⁻¹ and the kon is 39000 M⁻¹ s⁻¹. Further, in the assay with Flt-1-IgG, the binding result was “no binding (tested: 3, 10 and 30 nM)”. In addition, binding with KDR-IgG [2] was put at a Kd of 0.332 nM.

B2: vammin (VEGF-like protein purified from the venom of Vipera ammodytes ammodytes) (ligand)
chain: EVRPFLEVHERSACQARETLVPILQEYPDEISDIFRPSCVAVLRCSGCCTDESLKCTPVGKHTVDLQIMRVNPRTQSSKMEVMKFTEHTACECRPRRKQGEPDGPKEKPR
modifications: pyrrolidone ring at N-terminus (opened with methanol-hydrochloric acid for sequencing)
notes: also called vammin protein
Regarding B2, in assay [3], the binding result is reported as “no binding (tested: 500 nM)”. In the assay with KDR-IgG [1], this molecule returned a koff of 4.6e-06 s⁻¹ and a kon of 11200 M⁻¹ s⁻¹. Further, the binding result with Flt-1-IgG is “no binding (tested: 3, 10 and 30 nM)”. This molecule also had a Kd with KDR-IgG [2] of 0.411 nM.

B3: HF (hypotensive factor from the venom of Vipera aspis aspis) (ligand)
chain: B2 chain with P22S
notes: also called HF protein
In the case of B3, in the assay with KDR-IgG [1], the koff amounted to 9.6e-06 s⁻¹ and the kon is 28800 M⁻¹ s⁻¹. Further, the binding result with Flt-1-IgG is “no binding (tested: 3, 10 and 30 nM)”. Also, in the assay with KDR-IgG [2], the Kd was 0.334 nM.
